From the supplement of paper PMC10567573
± gives the standard deviation.

Assay: protein stability index of a GFP-peptide fusion (GPS, HEK-293T) (PSI 1-6); higher = more stable
[1] = treatment: DMSO, c terminus: a fixed tail appended
[2] = treatment: MLN4924 1 uM, 8 h, c terminus: a fixed tail appended
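Note: 24-mer peptide tiles fused after GFP, lentivirally expressed, FACS-sorted into six equal bins by GFP/DsRed ratio, decoded by Illumina sequencing, PSI is the read-weighted mean bin number.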

Sequence | protein stability index [1] | protein stability index [2] | protein stability index (treatment: DMSO, c terminus: native) | protein stability index (treatment: MLN4924 1 uM, 8 h, c terminus: native)
GSPEQLQIPVTDSGRHILEDSCAE [SDE2] | 5.18 ± 0.27 | 5.5 ± 0.35 | – | –
EEHGLQQERPRPEPGRLGSSSPAS [PXN] | 5.25 ± 0.43 | 5.1 ± 0.15 | – | –
IYVVGGYSWNNRCMVEIVQKYDPD [KLHL13] | 2.99 ± 1.6 | 2.91 ± 1.3 | – | –
GIAIVSVLVILISIVIFCLETLPE [KCNA3] | 2.21 ± 0.26 | 2.36 ± 0.46 | – | –
ALKRFVNLVARHPLFSEDVVLKLF [SNX8] | 2.38 ± 0.88 | 2.46 ± 0.1 | – | –
WEEEEDHEKERPEHKSLESLADGG [FANCE] | 5.46 ± 0.34 | 5.53 ± 0.19 | – | –
KNFFKKAAAALFGGKKDKARYIDT [PLK2] | 1.95 ± 0.33 | 2.4 ± 0.63 | – | –
QDSSVTSKRNIKKGAVPRSIPNLA [HDAC6] | 4.17 ± 0.26 | 4.21 ± 0.41 | – | –
DEISDHAKVLTLSDDLERTIEERV [EIF5] | 5.16 ± 0.28 | 5.44 ± 0.11 | – | –
KSSVYRRYNDFVVFQEMLLHKFPY [SNX8] | 2.45 ± 0.65 | 2.24 ± 0.39 | – | –
SNANYSVKKCIFLLFINHRLVEST [MLH1] | 3.35 ± 0.46 | 3.25 ± 1.2 | – | –
LGDRLNVEVDAAPAVDLNQVLNET [KRT33B] | 4.93 ± 0.14 | 4.96 ± 0.097 | – | –
GHLRGPEIRDWRGPQLEGEKDWGL [ZSWIM9] | 3.66 ± 0.39 | 3.52 ± 0.47 | – | –
LTRKGLVRVVFFPLFSNWWIQVTS [PHTF1] | 3.06 ± 0.039 | 2.81 ± 0.71 | – | –
ARIQQSRRQCHAEEDQSQVPEAG [SMIM2] | – | – | 3.25 ± 0.4 | 3.29 ± 0.31
SRMKFRGNGALSNISDLPFLAENS [LCOR] | 3.32 ± 0.31 | 3.47 ± 0.27 | – | –
PKDIAKLVPKTHLMSESEWRNLGV [CKS1B] | 2.8 ± 0.32 | 2.85 ± 0.34 | – | –
DCLKACQEQIEAVLLNSLQQYRQD [CCND2] | 2.32 ± 0.35 | 2.33 ± 0.28 | – | –

Sequence | protein stability index [1] | protein stability index [2] | protein stability index (treatment: DMSO, c terminus: native) | protein stability index (treatment: MLN4924 1 uM, 8 h, c terminus: native)
ICDPGLTSFEPEALGNLVEGMDFH [CAMK2B] | 3.92 ± 0.23 | 4.07 ± 0.13 | – | –
QVLNETRSQYEALVETNRREVEQW [KRT34] | 4.3 ± 0.22 | 4.6 ± 0.1 | – | –
GGSELGGWSLGRWTHDGIDINNNF [CPXM2] | 3.06 ± 0.031 | 2.64 ± 0.054 | – | –
LDKLNFEAINFCRGLGSQASTVTE [ACSBG2] | 3.36 ± 0.5 | 3.71 ± 0.24 | – | –
GGFPIIRDQIFRYVHDPECVATTG [FBXO3] | 2.14 ± 0.29 | 2.7 ± 0.57 | – | –
TCLPLGVLMKGQHLHLETFKAVLD [PRAME] | 2.36 ± 0.25 | 2.32 ± 0.32 | – | –
NNDDDEDEDDEDEDEDEDEDEDED [TAF7L] | 5.57 ± 0.15 | 5.55 ± 0.23 | – | –
FRGQILGFWEEERPFWEEEKTFWK [CCDC70] | 2.25 ± 0.33 | 2.28 ± 0.31 | – | –
YVYFFCTVPEILVHNIVIFMRTSV [TMEM106C] | 3.13 ± 0.43 | 2.92 ± 0.37 | – | –
SLKGSLSVEEQLSLISGCPNIQEA [CRYL1] | 4.18 ± 0.3 | 4.12 ± 0.36 | – | –
LVGIFILAVSRPRSSPDDLKALTR [SCARA5] | 2.84 ± 0.39 | 2.84 ± 0.69 | – | –
DLSPLLGFWQLPPPATQNTFGNST [PLAGL1] | 2.36 ± 0.43 | 2.5 ± 0.23 | – | –
WDRNRRRGGGAAGAGGGGSGAGGG [KLHDC10] | 5.16 ± 0.5 | 5.3 ± 0.2 | – | –
ELLTCHSAEYVGHLRATEKMKTRE [HDAC6] | 3.82 ± 0.1 | – | – | –
YSKPGLSMRLLESKKGLSFFAFEH [TCF25] | 2.12 ± 0.33 | 2.08 ± 0.38 | – | –
AEEYRLKEHYLTFEKSRYETYIHL [PSD2] | 1.93 ± 0.2 | 2.01 ± 0.46 | – | –
IDKNTQLTLQVYREQADSCREQLD [TRIM14] | 4.58 ± 0.21 | 4.18 ± 0.79 | – | –
LNIVERYDPKENKWTRVASMSTRR [KLHL20] | 3.31 ± 0.084 | 3.39 ± 0.23 | – | –
